Assay results reported in patent US20140370037A1.

Legend:
[1] = target: human DLL3 on cells (human) (UniProt Q9NYJ7); assay: cell-based or functional assay
[2] = target: human DLL3 on cells (human), Q9NYJ7; assay: cell-based or functional assay
human DLL3 on cells (human), Q9NYJ7, sequence (Q9NYJ7 27-618): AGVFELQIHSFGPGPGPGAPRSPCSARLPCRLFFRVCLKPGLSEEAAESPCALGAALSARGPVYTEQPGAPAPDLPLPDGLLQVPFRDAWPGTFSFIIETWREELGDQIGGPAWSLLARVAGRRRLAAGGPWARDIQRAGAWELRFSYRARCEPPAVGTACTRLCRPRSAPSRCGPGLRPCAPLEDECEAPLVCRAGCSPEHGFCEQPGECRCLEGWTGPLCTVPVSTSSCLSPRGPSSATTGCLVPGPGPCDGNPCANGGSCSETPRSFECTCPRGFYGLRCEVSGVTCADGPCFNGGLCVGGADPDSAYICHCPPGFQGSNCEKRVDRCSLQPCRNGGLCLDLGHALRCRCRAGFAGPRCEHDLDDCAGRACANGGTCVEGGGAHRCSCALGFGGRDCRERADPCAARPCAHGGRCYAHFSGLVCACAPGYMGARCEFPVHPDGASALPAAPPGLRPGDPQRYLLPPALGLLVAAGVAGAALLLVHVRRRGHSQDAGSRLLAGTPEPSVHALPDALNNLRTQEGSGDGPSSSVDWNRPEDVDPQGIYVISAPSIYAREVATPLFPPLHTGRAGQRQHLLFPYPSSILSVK

human DLL3 on cells (human), sequence (Q9NYJ7 27-618): as above

Row | Binder | EC50 of killing of OV26 NTX tumor cells with anti-mouse IgG Fab-saporin [1] | also measured
1 | SC16.34 (antibody, V domains shown) VH: QIQLVQSGPELKRPGETVKISCKASGYTFTNYGMNWVKQAPGKGLKWMGWINTYTGDPTYADDFKGRFAFSLETSASTAYLQINNLKNEDTATYFCARIGGNSPSDYWGQGTSLTVSS VL: SIVMTQTPKFLLVSAGDRVTITCKASQSVSNDVAWYQQKPGQSPKLLIYYASNRYSGVPDRFTGSGYGTDFTFTISTVQAEDLAVYFCQQDYSSPWTFGGGTKLEIK | 5.7 pM | –
2 | hSC16.15-ADC1 (antibody, human IgG1, V domains shown, here or on the partner: PBD dimer drug-linker ADC1 on reduced Cys residues (positions not stated)) VL: AIQLTQSPSSLSASVGDRVTITCRASENIYYNLAWYQQKPGKAPKLLIYTANSLEDGVPSRFSGSGSGTDFTLTISSLQPEDFATYFCKQAYDVPPTFGGGTKLEIK VH: QVQLVQSGAEVKKPGASVKVSCKASGYTFTRYWIHWIRQAPGQGLEWMGYINPTTVYTEFNQNFKDRVTMTRDTSTSTVYMELSSLRSEDTAVYYCARGGSNFFDYWGQGTTVTVSS | – | concentration that killed 50% of LU37 NTX cells (7 days, Cell Titer Glo) [2]: < 10 ng/mL
3 | SC16.15 (antibody, V domains shown) VH: QVQLQQSGAELAKPGASVKMSCKASGYTFTRYWIHWIKQRPGQGLEWIGYINPTTVYTEFNQNFKDKATLTADKSSTTASMQLSSLTSEDSAVYYCARGGSNFFDYWGQGTTLTVSS VL: DIQMTQSPASLAASVGETVAITCRASENIYYNLAWYQQKQGKSPQLLIYTANSLEDGVPSRFSGSGSGTQYSLKINSMQPEDSATYFCKQAYDVPPTFGGGTKLEIK | 0.14 pM | –
4 | hSC16.56-ADC1 (antibody, human IgG1, V domains shown, here or on the partner: PBD dimer drug-linker ADC1 on reduced Cys residues (positions not stated)) VL: EIVMTQSPATLSVSPGERATLSCKASQSVSNDVVWYQQKPGQAPRLLIYYASNRYTGIPARFSGSGSGTEFTLTISSLQSEDFAVYYCQQDYTSPWTFGQGTKLEIKR VH: QVQLVQSGAEVKKPGASVKVSCKASGYTFTNYGMNWVRQAPGQGLEWMGWINTYTGEPTYADDFKGRVTMTTDTSTSTAYMELRSLRSDDTAVYYCARIGDSSPSDYWGQGTLVTVSS | – | dose that killed 50% of naïve KDY66 cells (7 days, Cell Titer Glo) [2]: 13.3 pM
